From patent US12385058B2, “Herbicide tolerance protein, encoding gene thereof and use thereof” (Beijing Dabeinong Biotechnology Co., Ltd., priority 2018, dated 2025)

B1: ALT02M3-01: nucleotide sequence SEQ ID NO: 33 encoding ALT02M3, based on soybean codon usage bias (nucleic acid)
DNA: ATGGAGACTGATAACGTGGAACTCGCCCAATCTAAGAGAAAGGTGGTGCTGGCTGAACAAGGGTCATTTTACATAGGGGGTAGGACTGTTACTGGTCCTGGCAAGTTTGATCCATCCAAACCTGTGATACGAGCCAGTAACGAAGGAGCAACATTCTATATTAACCAAATGTATGTTAACTTCCAGGCCCCAGTGAGACCTAGGGGACTTCCATTGGTTTTCTGGCATGGAGGTGGCTTGACTGGTCACATCTGGGAGTCTACACCTGACGGCAGACCCGGGTTTCAAACCCTCTTCGTTCAGGATAGGCATACCGTGTACACTATTGACCAACCTGGGAGAGGAAGGGGTAACATCCCAACTTTTAACGGACCTTTCGGACAGTTGGAGGAAGAGAGTATTGTTAACACTGTGACAGCCAATGTATCAAAGGAACGAGCCTGGGTGAGAGATAGGCTTGGCCCTGCTCCCGGGCAATTTTTCGAGAACTCTCAGTTTCCTAGAGGCTATGAAGACAATTACTTTAAGGAGATGGGATTCAGCCCATCTATATCCAGTGATGAAATTGTTGACGCTGTTGTGAAACTCGTGACCCATATTGGTCCTTGTGTTCTGGTGACTCACTCAGCATCCGGCGTTCTTGGGATGAGAGTGGCTACACACGCAAAGAATGTTAGGGGAATTGTGGCCTATGAACCAGCTACCTCAATCTTCCCCAAGGGAAAAGTTCCAGAGATACCACCTCTCGCTGATAAGAAAAGCCAAATCTTTCCCCCATTCGAAATACAGGAGTCTTACTTTAAGAAACTTGCCAAGATTCCAATCCAATTTGTTTTCGGAGATAACATCCCCAAGAATCCAAAATCAGCATATTGGTTCCTGGACTGGTGGAGAGTGACAAGATACGCACATAGTCTCAGCCTGGAGGCCATAAACAAATTGGGGGGACAAGCTTCCCTTTTGGATCTTCCTACTGCAGGATTGAGAGGTAATACACACTTTCCCTTCACCGATAGGAACAATGTTCAGGTGGCTTCTCTCCTGTCAGACTTTCTGGGTAAACACGGTCTGGATCAAAATGAGAGCAAACTCGCCGCCGCCCTGGAATGA
modifications: the ALT02M3-01 nucleotide sequence encoding the amino acid sequence corresponding to the herbicide tolerant protein ALT02M3 and based on the soybean codon usage bias
B2: ALT02-01: nucleotide sequence SEQ ID NO: 21 encoding ALT02, based on soybean codon usage bias (nucleic acid)
DNA: ATGGAGACTGATAACGTGGAACTCGCCCAATCTAAGAGAAAGGTGGTGCTGGCTGAACAAGGGTCATTTTACATAGGGGGTAGGACTGTTACTGGTCCTGGCAAGTTTGATCCATCCAAACCTGTGATACCCTACAGTAACGAAGGAGCAACATTCTATATTAACCAAATGTATGTTAACTTCCAGGCCCCAGTGAGACCTAGGGGACTTCCATTGGTTTTCTGGCATGGAGGTGGCTTGACTGGTCACATCTGGGAGTCTACACCTGACGGCAGACCCGGGTTTCAAACCCTCTTCGTTCAGGATAGGCATACCGTGTACACTATTGACCAACCTGGGAGAGGAAGGGGTAACATCCCAACTTTTAACGGACCTTTCGGACAGTTGGAGGAAGAGAGTATTGTTAACACTGTGACAGGAAATTCTTCAAAGGAAGGTGCCTGGGTGAGAGATAGGCTTGGCCCTGCTCCCGGGCAATTTTTCGAGAACTCTCAGTTTCCTAGAGGCTATGAAGACAATTACTTTAAGGAGATGGGATTCAGCCCATCTATATCCAGTGATGAAATTGTTGACGCTGTTGTGAAACTCGTGACCCATATTGGTCCTTGTGTTCTGGTGACTCACTCAGCATCCGGCGTTCTTGGGATGAGAGTGGCTACACACGCAAAGAATGTTAGGGGAATTGTGGCCTATGAACCAGCTACCTCAATCTTCCCCAAGGGAAAAGTTCCAGAGATACCACCTCTCGCTGATAAGAAAAGCCAAATCTTTCCCCCATTCGAAATACAGGAGTCTTACTTTAAGAAACTTGCCAAGATTCCAATCCAATTTGTTTTCGGAGATAACATCCCCAAGAATCCAAAATCAGCATATTGGTTCCTGGACTGGTGGAGAGTGACAAGATACGCACATAGTCTCAGCCTGGAGGCCATAAACAAATTGGGGGGACAAGCTTCCCTTTTGGATCTTCCTACTGCAGGATTGAGAGGTAATACACACTTTCCCTTCACCGATAGGAACAATGTTCAGGTGGCTTCTCTCCTGTCAGACTTTCTGGGTAAACACGGTCTGGATCAAAATGAGAGCAAACTCGCCGCCGCCCTGGAATGA
modifications: the ALT02-01 nucleotide sequence encoding the amino acid sequence corresponding to the ALT02 and based on the soybean codon usage bias

Tested on: soybean plants
Experiment: Herbicide tolerance of transgenic soybean T1 plants (spraying, damage degree)
Assay type: in vivo
Details: sprayed with tribenuron-methyl 144 g ai/ha, eight-fold field concentration
Procedure: The degree of damage caused by the herbicide was measured for each plant according to the leaf curl degree and the growth point damage degree 3 days after spraying (3 DAT), 7 days after spraying (7 DAT), 14 days after spraying (14 DAT) and 21 days after spraying (21 DAT): the case where the leaves are flat as untreated plants and the growth points are intact is defined as having a damage degree of 0%; the case where veins are locally browned, new leaves are malformed and plant growth is slow is defined as having a damage degree of 50%; and the case where veins are purple, until the whole plant is dead and the growth points are browned and dry is defined as having a damage degree of 100%. The soybean plants into which the ALT02M1-01 nucleotide sequence was introduced were of three strains in total (S1, S2 and S3), the soybean plants into which the ALT02M2-01 nucleotide sequence was introduced were of three strains in total (S4, S5 and S6), the soybean plants into which the ALT02M3-01 nucleotide sequence was introduced were of three strains in total (S7, S8 and S9), the soybean plants into which the ALT02-01 nucleotide sequence was introduced were of three strains in total (S10, S11 and S12), the control soybean plants were of two strains in total (S13 and S14), and the wild-type soybean plants were of one strain in total (CK1); and 10-15 plants were selected from each strain and tested.

| Molecule | herbicide tolerance compared with soybean plants into which ALT02-01 was introduced | herbicide tolerance imparted to transgenic soybean plants |
| --- | --- | --- |
| B1 | significantly increased tolerance to benzenesulfonic acid | impart transgenic soybean plants with the tolerance to benzenesulfonic acid |
| B2 | – | impart transgenic soybean plants with the tolerance to benzenesulfonic acid |
